Measurements from PMC7840982, “Purification of Crimean–Congo hemorrhagic fever virus nucleoprotein and its utility for serological diagnosis” (Scientific Reports, 2021).

Biological target: the molecule itself
Test: negative-stain transmission electron microscopy

B1: Crimean–Congo hemorrhagic fever virus nucleoprotein (strain IbAr10200), recombinant, untagged (natural protein)
chain: MENKIEVNNKDEMNRWFEEFKKGNGLVDTFTNSYSFCESVPNLDRFVFQMASATDDAQKDSIYASALVEATKFCAPIYECAWVSSTGIVKKGLEWFEKNAGTIKSWDESYTELKVDVPKIEQLTGYQQAALKWRKDIGFRVNANTAALSNKVLAEYKVPGEIVMSVKEMLSDMIRRRNLILNRGGDENPRGPVSHEHVDWCREFVKGKYIMAFNPPWGDINKSGRSGIALVATGLAKLAETEGKGIFDEAKKTVEALNGYLDKHKDEVDRASADSMITNLLKHIAKAQELYKNSSALRAQSAQIDTAFSSYYWLYKAGVTPETFPTVSQFLFELGKQPRGTKKMKKALLSTPMKWGKKLYELFADDSFQQNRIYMHPAVLTAGRISEMGVCFGTIPVANPDDAAQGSGHTKSILNLRTNTETNNPCAKTIVKLFEVQKTGFNIQDMDIVASEHLLHQSLVGKQSPFQNAYNVKGNATSANII
notes: also called CCHFV NP; NP
B1: binds.
